The text below walks through data of patent US20150072933A1, “NOVEL SEQUENCES FOR THE CONTROL OF REPRODUCTION IN FISH” (Yissum Research Development Company of the Hebrew …, priority 2011, published 2015).

Entries after “also recorded” stand apart in the source; their conditions may differ. *1 amine or outer side, *2 acyl side, *3 side chain or, on linkers, in order; H or OH if unused. Where a SMILES comes first, the peptide text is derived from it. Where no end group is shown, it is not given here. [ ]: non-standard residue; d: D form. Suc = O=C(CCC(=O)[*:2])[*:1]; NMeV = CN[C@H](C(=O)O)C(C)C

The test system of test [1] is zfTac3ra. In words: Receptor transactivation assay, CRE-Luc reporter (PKA activation), COS-7 cells expressing zfTac3ra. It is filed as cell-based, zebrafish. The note with it: Table 6 (native peptides and analogues), PKA activation, mean ± SEM, read-out: EC50 using CRE-Luc, zfTac3ra. On the procedure: (§1) In order to study the signaling pathways of the novel zebrafish NKBs, the entire coding regions of zftac3ra (denoted by SEQ ID NO:6) or zftac3rb (denoted by SEQ ID NO:7), or the cDNA clone for human NK3R (obtained from the Missouri S&T cDNA Resource Center, were inserted into pcDNA3.1 (Invitrogen). The luciferase assay was conducted according to Biran et al., 2008 [4] COS-7 cells were grown in DMEM supplemented with 10% FBS, 1% glutamine, 100 U/ml penicillin, and […] streptomycin (Biological Industries) under 5% CO2 until confluent. Cotransfection of either pc-zftac3ra, pc-zftac3rb or pc-Htac3r (at 3 μg/plate), a reporter plasmid (at 2 μg/plate), and pCMV-β-galactosidase (at 1 μg/plate) was carried out with FuGENE 6.0 reagent (Roche). The cells were serum starved for 36 h, stimulated with vehicle or various concentrations of either human (Sigma) or zebrafish NKBs for 6 h, and then harvested and analyzed. Lysates prepared from the harvested cells were assayed for both luciferase activity and β-galactosidase activity, which was used as an internal standard to normalize the luciferase activity directed by the test plasmid. Transfection experiments were performed in triplicate with three independently isolated sets. Protein structure prediction of zebrafish NKBa, NKBb or NKF were performed on I-Tasser servers.
(§2) The response, binding selectivity and signal transduction pathways of the novel tachykinin receptors to their agonists were evaluated by functional expression analysis, using COS-7 cells.
(§3) The NKB analogues (i.e. the NKBa-analog, NKBb-analog and NKF-analog, as denoted by SEQ ID NO. 44-46) were first analyzed in comparison to their native forms in a transactivation assay, using reporter genes for specific signal transduction pathways. To validate the specificity of the serum-responsive element (SRE)-Luc and cAMP-responsive element (CRE)-Luc reporter systems, specific activators for PLC/PKC and AC/PKA signaling pathways were used in control experiments.
(§4) Thus, the ability of the three novel piscine peptides (namely, NKBa, NKBb and NKF, denoted by SEQ ID NO.40, 41 and 42), as well as the ability of the three analogous agonistic peptides, namely, NKBa-analog, NKBb-analog and NKF-analog, to differentially activate the different tac3 receptors, using SRE as a reporter gene that follows PKC activation and CRE as a reporter gene for the PKA pathway, was tested. Human NK3R (human NKB receptor) and human NKB served as controls.

The subject of test [2] is zfTac3rb. The test can be described thus: Receptor transactivation assay, CRE-Luc reporter (PKA activation), COS-7 cells expressing zfTac3rb. It is filed as cell-based, zebrafish. The conditions noted are these: Table 6 (native peptides and analogues), PKA activation, mean ± SEM, read-out: EC50 using CRE-Luc, zfTac3rb. Here is the method:
as §1, §2, §3, §4

Test [3] relates to zfTac3ra. The test can be described thus: Receptor transactivation assay, SRE-Luc reporter (PKC activation), COS-7 cells expressing zfTac3ra. The test is classed as cell-based, zebrafish. The note with it: Table 7 (native peptides and analogues); PKC activation; mean ± SEM; read-out: EC50 using SRE, zfTac3ra. On the procedure:
as §1, §2, §3, §4

For test [4], the system named is zfTac3rb. The test can be described thus: Receptor transactivation assay, SRE-Luc reporter (PKC activation), COS-7 cells expressing zfTac3rb. The test is classed as cell-based, zebrafish. The conditions noted are these: Table 7 (native peptides and analogues); PKC activation; mean ± SEM; read-out: EC50 using SRE, zfTac3rb. On the procedure:
as §1, §2, §3, §4

The test system of test [5] is Mature female carp. In words: Gonadotropin release from mature carp in vivo (LH by ELISA). The note with it: mature female carp just before spawning, injected 20 μg/kg body weight; listed as NKBb analogue. On the procedure:
Mature female carp, just before spawning, were injected with NKBa, NKBb and NKF analogues, denoted by SEQ ID NO.44, SEQ ID NO.45 and SEQ ID NO.46, respectively (20 μg/kg body weight). LH levels was measured by specific ELISA, according to Aizen et al. 2012 [33].
Background: ELISA stands for enzyme-linked immunosorbent assay.

Test [6] concerns the target T1, zebrafish Tac3rb (tac3 receptor b, NKB receptor) (zebrafish).
T1 chain: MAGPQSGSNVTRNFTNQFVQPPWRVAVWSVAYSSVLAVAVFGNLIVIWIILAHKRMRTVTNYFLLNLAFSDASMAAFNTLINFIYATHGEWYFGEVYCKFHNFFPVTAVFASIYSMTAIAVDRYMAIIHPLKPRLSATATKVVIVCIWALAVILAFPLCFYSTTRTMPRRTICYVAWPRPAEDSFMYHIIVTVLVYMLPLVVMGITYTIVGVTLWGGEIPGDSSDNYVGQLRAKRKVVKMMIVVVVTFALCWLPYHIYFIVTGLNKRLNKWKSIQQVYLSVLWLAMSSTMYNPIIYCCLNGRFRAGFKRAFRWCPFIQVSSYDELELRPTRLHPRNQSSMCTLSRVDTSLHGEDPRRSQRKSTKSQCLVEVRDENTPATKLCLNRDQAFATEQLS
In words: cell-based or functional assay.

For test [7], the target named is T2, human NK3R (human NKB receptor) (human, UniProt P29371 1-465).
T2 sequence (looked up): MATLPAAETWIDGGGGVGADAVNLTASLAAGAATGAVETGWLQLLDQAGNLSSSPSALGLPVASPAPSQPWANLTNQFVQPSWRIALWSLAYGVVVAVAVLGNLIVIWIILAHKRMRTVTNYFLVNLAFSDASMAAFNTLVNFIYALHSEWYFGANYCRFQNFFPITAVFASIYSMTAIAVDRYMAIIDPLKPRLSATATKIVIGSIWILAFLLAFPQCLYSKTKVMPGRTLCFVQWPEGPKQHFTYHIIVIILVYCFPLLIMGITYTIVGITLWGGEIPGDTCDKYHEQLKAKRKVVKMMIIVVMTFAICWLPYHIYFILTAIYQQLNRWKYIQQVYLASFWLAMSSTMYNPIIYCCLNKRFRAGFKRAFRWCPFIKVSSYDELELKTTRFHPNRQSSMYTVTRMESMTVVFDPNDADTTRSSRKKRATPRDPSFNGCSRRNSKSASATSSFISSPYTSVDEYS
In words: cell-based or functional assay.

Test [8] has as its target T3, zebrafish Tac3ra (tac3 receptor a, NKB receptor) (zebrafish).
T3 chain: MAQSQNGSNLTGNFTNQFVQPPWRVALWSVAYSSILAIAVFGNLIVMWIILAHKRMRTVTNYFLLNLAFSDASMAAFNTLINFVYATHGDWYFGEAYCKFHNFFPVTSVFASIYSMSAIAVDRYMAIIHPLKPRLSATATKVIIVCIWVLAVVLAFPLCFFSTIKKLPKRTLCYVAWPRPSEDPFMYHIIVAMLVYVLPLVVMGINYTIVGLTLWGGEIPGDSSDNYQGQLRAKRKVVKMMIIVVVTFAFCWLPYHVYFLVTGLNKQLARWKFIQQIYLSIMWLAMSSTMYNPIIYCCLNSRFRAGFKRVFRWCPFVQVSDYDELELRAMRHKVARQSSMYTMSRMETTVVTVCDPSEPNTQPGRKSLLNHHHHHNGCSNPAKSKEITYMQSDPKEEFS
The test can be described thus: cell-based or functional assay.

The target of test [9] is T1, zebrafish Tac3rb (tac3 receptor b, NKB …). In words: cell-based or functional assay.
Test [10] addresses T2, human NK3R (human NKB receptor). The test can be described thus: cell-based or functional assay. This is another data set of the same source.
The target in test [11] is T3, zebrafish Tac3ra (tac3 receptor a, NKB …). The test can be described thus: cell-based or functional assay.
Test [12] deals with T1, zebrafish Tac3rb (tac3 receptor b, NKB …). The test can be described thus: cell-based or functional assay.
In test [13] the target is T2, human NK3R (human NKB receptor). In words: cell-based or functional assay. The source holds these as a separate data set.
For test [14], the target named is T3, zebrafish Tac3ra (tac3 receptor a, NKB …). The test can be described thus: cell-based or functional assay.

In general, EC50 refers to the concentration at which the effect is half-maximal. `CSCC[C@H](NC(=O)[C@H](CC(C)C)NC(=O)CNC(=O)[C@H](C(C)C)N(C)C(=O)[C@H](Cc1ccccc1)NC(=O)[C@H](CC(=O)O)NC(=O)CCC(=O)O)C(N)=O` [zfNKBb-analog, Succ-Asp-Phe-N(Me)Val-Gly-Leu-Met-NH2] (Suc-DF[NMeV]GLM-NH2): the concentration for a half-maximal effect (EC50) in test [1] (listed as NKBb-analog) is 1.7 nM; in [1], 1.68 ± 1.21 nM; in [2] (listed as NKBb-analog) it was 2.2 nM; in test [2] it was 2.18 ± 1.34 nM; in test [3] it was 0.06 nM; in test [4], 0.23 nM. Besides, the LH level result in [5] was “significant elevation; also recorded: increased the level of LH significantly”.

B1: Zebrafish Tac3b peptide, neurokinin Bb (STGINREAHLPFRPNMNDIFVGLL-NH2) (peptide)
peptide: STGINREAHLPFRPNMNDIFVGLL-NH2
With B1, the results for the “EC50, CRE-Luc reporter (PKA activation), transfected COS-7 cells” value in test [6], in test [7] and in test [8] were 519 nM, 605 nM and 237 nM, respectively. Further, the “EC50, SRE-Luc reporter (PKC activation), transfected COS-7 cells” value in test [6] is 33.8 nM; in [7] it was 204 nM; in test [8], 8.96 nM. In addition, the “EC50, CRE-Luc to follow PKA activation, transfected COS-7 cells” value in test [9] stood at 191 nM; in test [10] it was 336 nM; in test [11], 99.6 nM. The “EC50, SRE reporter gene that follows PKC activation, transfected COS-7 cells” value in [12] came out at 15.3 nM; in test [13] it was 204 nM; in test [14], 6.06 nM.

B2: Zebrafish Tac3f peptide, neurokinin F (YNDIDYDSFVGLM-NH2) (peptide)
peptide: YNDIDYDSFVGLM-NH2
Turning to B2, the entries for the “EC50, CRE-Luc reporter (PKA activation), transfected COS-7 cells” value in test [6], in test [7] and in test [8] were 1.8 nM, 4.36 nM and 4.94 nM, respectively. Also, the “EC50, SRE-Luc reporter (PKC activation), transfected COS-7 cells” value in [6] was 0.36 nM; in [7], 0.52 nM; in test [8] it was 0.54 nM. Also, the entries for the “EC50, CRE-Luc to follow PKA activation, transfected COS-7 cells” value in [9], in test [10] and in [11] were 1.8 nM, 4.36 nM and 4.94 nM, respectively. Also, the “EC50, SRE reporter gene that follows PKC activation, transfected COS-7 cells” value in test [12] turned out to be 0.37 nM; in test [13], 0.52 nM; in test [14] it was 0.55 nM.
